Here are results for four substances from US20180194841A1.

In experiment [1] the target is Fc receptors (FcR) on U937 cells. Briefly: cell-based or functional assay.
For experiment [2], the target named is human CD3 (on Jurkat cells, CD3+, CD20- human T-cell line; on human T cells) (human) (UniProt P07766). As to the kind of experiment: FACS, serially diluted antibody on Jurkat cells (CD3+, CD20-).
The target in experiment [3] is cynomolgus CD3 (on cynomolgus T cells from PBMCs, "mkT cells") (cynomolgus) (UniProt Q95LI5). As to the kind of experiment: FACS, serially diluted antibody on cynomolgus T cells (CD2+CD4+ gate of PBMCs).
Chain of cynomolgus CD3 (on cynomolgus T cells from PBMCs, "mkT cells") (cynomolgus) (Q95LI5 22-198, chain 1 of 3): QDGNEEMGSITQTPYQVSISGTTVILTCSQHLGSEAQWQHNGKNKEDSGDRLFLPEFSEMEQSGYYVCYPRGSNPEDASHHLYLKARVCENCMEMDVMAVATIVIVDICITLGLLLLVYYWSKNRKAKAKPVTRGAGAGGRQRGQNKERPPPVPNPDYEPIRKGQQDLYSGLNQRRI
Chain of cynomolgus CD3 (on cynomolgus T cells from PBMCs, "mkT cells") (cynomolgus) (Q95LI8 22-171, chain 2 of 3, further chain): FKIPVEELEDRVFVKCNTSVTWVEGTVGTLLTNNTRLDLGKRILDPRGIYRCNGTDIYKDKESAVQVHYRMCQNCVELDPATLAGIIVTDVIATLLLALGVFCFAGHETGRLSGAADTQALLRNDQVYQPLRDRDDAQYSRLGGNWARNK
Chain of cynomolgus CD3 (on cynomolgus T cells from PBMCs, "mkT cells") (cynomolgus) (Q95LI7 23-181, chain 3 of 3, further chain): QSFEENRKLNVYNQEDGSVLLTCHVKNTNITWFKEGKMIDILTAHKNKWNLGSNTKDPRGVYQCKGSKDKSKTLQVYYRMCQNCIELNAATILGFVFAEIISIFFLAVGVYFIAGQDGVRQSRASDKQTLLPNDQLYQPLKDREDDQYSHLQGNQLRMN
Experiment [4] concerns the target His-tagged human FcγRI (human) (UniProt P12314). As to the kind of experiment: SPR (Biacore T200), 25 C, His-tagged FcγRI captured on anti-penta-His chip, antibody injected, 1:1 fit. In general terms: SPR reads the build-up and loss of mass on a sensor chip optically.
The target in experiment [5] is His-tagged cynomolgus FcγRIIA (cynomolgus). As to the kind of experiment: SPR steady-state, 25 C, His-tagged FcγR captured, antibody injected.
Experiment [6] deals with His-tagged human FcγRIIIA (V176) (human) (UniProt P08637). Described as above.
Chain of His-tagged human FcγRIIIA (V176) (human) (P08637 17-208 F176V limits assumed): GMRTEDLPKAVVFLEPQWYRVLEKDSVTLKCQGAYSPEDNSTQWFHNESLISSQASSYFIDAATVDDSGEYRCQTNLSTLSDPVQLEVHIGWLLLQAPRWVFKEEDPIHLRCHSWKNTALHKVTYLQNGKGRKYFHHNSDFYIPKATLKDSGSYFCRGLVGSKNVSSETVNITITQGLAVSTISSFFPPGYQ
For experiment [7], the target named is His-tagged cynomolgus FcγRIIIA (cynomolgus) (UniProt Q8SPW2). The experiment is described as above.
Chain of His-tagged cynomolgus FcγRIIIA (cynomolgus) (Q8SPW2 17-208 limits assumed): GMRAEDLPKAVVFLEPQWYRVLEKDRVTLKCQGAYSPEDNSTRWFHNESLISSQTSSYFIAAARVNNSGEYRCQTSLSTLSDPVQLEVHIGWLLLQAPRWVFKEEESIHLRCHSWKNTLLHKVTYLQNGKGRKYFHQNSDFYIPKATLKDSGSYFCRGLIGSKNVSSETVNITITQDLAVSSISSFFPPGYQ
Experiment [8] deals with His-tagged human FcγRIIIA (F176) (human) (UniProt P08637). Described as above.
Chain of His-tagged human FcγRIIIA (F176) (human) (P08637 17-208 limits assumed): as the sequence (P08637 17-208 F176V limits assumed) above, with V160F counted along it
Experiment [9] deals with His-tagged human FcγRIIB (human) (UniProt P31994). The experiment is described as above.
Chain of His-tagged human FcγRIIB (human) (P31994 46-217 limits assumed): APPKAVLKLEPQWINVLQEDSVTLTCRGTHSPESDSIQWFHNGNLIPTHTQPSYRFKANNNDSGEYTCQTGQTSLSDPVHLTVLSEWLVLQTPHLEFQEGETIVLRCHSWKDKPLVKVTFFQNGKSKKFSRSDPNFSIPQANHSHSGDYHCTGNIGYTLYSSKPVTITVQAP
Experiment [10] has as its target His-tagged human FcγRIIA (H131) (human) (UniProt P12318). The description is as above.
Experiment [11] concerns the target His-tagged human FcγRIIA (R131) (human) (UniProt P12318). Described as above.
Experiment [12] deals with His-tagged cynomolgus FcγRIIB (cynomolgus). The experiment is described as above.
Experiment [13] concerns the target His-tagged human FcγRIIIB (human) (UniProt O75015). The description is as above.

Chain of His-tagged human FcγRI (human) (P12314 16-288 limits assumed): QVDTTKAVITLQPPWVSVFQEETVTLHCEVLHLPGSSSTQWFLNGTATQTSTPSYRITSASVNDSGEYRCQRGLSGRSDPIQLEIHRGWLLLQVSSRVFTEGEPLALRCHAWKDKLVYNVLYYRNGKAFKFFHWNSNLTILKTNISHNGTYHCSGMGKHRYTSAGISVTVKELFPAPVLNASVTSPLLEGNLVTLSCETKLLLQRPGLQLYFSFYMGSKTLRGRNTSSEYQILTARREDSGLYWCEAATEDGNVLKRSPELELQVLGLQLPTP
Chain of His-tagged human FcγRIIA (H131) (human) (P12318 36-218 limits assumed): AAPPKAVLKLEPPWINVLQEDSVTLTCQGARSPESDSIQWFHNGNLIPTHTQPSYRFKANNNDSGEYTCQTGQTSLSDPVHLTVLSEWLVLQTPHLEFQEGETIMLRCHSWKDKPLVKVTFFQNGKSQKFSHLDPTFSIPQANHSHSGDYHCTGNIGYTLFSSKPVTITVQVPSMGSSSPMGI
Chain of His-tagged human FcγRIIA (R131) (human) (P12318 36-218 H167R limits assumed): as the sequence (P12318 36-218 limits assumed) above, with H132R counted along it
Chain of His-tagged human FcγRIIIB (human) (O75015 17-200 limits assumed): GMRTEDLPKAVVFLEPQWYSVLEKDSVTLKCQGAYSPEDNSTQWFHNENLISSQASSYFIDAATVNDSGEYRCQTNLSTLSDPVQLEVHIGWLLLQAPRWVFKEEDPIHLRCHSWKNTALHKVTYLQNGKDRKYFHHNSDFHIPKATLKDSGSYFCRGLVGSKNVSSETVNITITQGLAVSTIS

Turning to “Control Antibody 1: Monoclonal antibody "OKT-3" against human T-cell surface antigens”, the U937 Cytotoxicity Human T-cells [M] (EC50, calcein release) in experiment [1] was 3.04e-12 M. The EC50 – broadly, the concentration that produces a half-maximal response – in experiment [2] is 0.000196 µM.

For “Control Antibody 2: Antibody "SP34" reactive against the epsilon chain of the T3 complex on human T lymphocyte cells”, the EC50 in [3] came out at 0.0703 nM.

Consider wt-IgG4 CPPC Isotype Control (antibody), for which the equilibrium dissociation constant (Kd) – broadly, the free concentration of one partner at which half of the binding sites on the other are occupied at equilibrium, for simple one-to-one binding – in [4] is 0.0139 µM; in experiment [5], 19.3 µM; in experiment [6], 10 µM; in experiment [7], 5.8 µM; in experiment [8], 26 µM; in [9], 9.8 µM. Moreover, the Kd in [10] worked out at 12 µM; in experiment [11], 10 µM; in experiment [12] it was 9.6 µM. In addition, in experiment [4], the T1/2 was 5 min. Moreover, in experiment [4], the koff (as a rule, the rate constant with which the complex falls apart) was 0.00236 s⁻¹. Moreover, the on-rate (kon) (in general, the second-order rate constant of association) in experiment [4] worked out at 171000 M⁻¹ s⁻¹.

Regarding “wt-IgG1 Isotype Control (from UniProt P01857 1-328) (antibody)”, the equilibrium dissociation constant (Kd) in experiment [4] was 0.0043 µM; in experiment [5], 4.2 µM; in experiment [6], 1.5 µM; in experiment [13], 2.3 µM; in experiment [7], 0.6 µM; in experiment [8] it was 1.3 µM. Also, the Kd in [10] is 1.1 µM; in experiment [12], 4.2 µM. Moreover, the T1/2 in [4] stood at 15 min.
